20 sequences from the supplement of paper PMC9170038 can be followed below.

The subject of data set [1] is MS2 coat protein. In words: apparent KD of MS2 coat protein, switch OFF state (with FMN for OFF switches, without FMN for ON switches); designed switch direction (-1 OFF switch, 1 ON switch): -1; higher = weaker reporter binding. The following applies: FMN input: 0 or 200 uM; Eterna round: R93 (includes R88 designs). In a few lines: (§1)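 SNAP-549-labelled MS2 coat protein was titrated onto designed RNA switches that had been transcribed on-chip from Illumina sequencing clusters. Amounts doubled from 0.7 or 1.5 nM to 3 µM in 100 mM Tris-HCl pH 7.5, 80 mM KCl, 4 mM MgCl2, with constant ligand or without. Apparent KD is the median per design of normalised cluster binding-curve fits.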

Data set [2] has as its system MS2 coat protein. The experiment in a line: apparent KD of MS2 coat protein, switch ON state; designed switch direction (-1 OFF switch, 1 ON switch): -1; higher = weaker reporter binding. The following applies: FMN input: 0 or 200 uM; Eterna round: R93 (includes R88 designs). An outline of the steps: as §1

In the case of “AAUUCACAUGAGGAUCACCCAUGUAAGGAUAUCGAAAUAAAACUAAUCAAAAAACAAACGAGAAGGUACAAAAA [Exclusion 1 design 7]”, the results for the “apparent KD of MS2 coat protein” value in data set [1] and in data set [2] were 26.3 nM and 23.6 nM, respectively.
“ACCAGACAUGAGGAUCACCCAUGUCAGGAUAUCUAGAAAACCUCAUGUAAAAAAAUCUAGAGAAGGGAUAUGGA [Design 94: Pseudoknot D]”: the “apparent KD of MS2 coat protein” value stood at 54.7 nM in data set [1] and 40.6 nM in data set [2].
On to “ACCAGUACAGGAUAUACAUGAGGAUCACCCAUGUGAGAAUUAAGUGGCGUACCACAAAGUAGAAGGGUACUGGA [Mat - Exclusion 3 - JL mod - D11]”, for which the “apparent KD of MS2 coat protein” value in data set [1] amounted to 273 nM; in data set [2] it was 43.3 nM.
Consider “ACCCUGCUAGGAUAUACAGCAGGGAUUCGAAAACCCACGAAACAUGAGGAUCACCCAUGUAGAAGGAGUAGGGA [Bimaat]”, for which the “apparent KD of MS2 coat protein” value in data set [1] was 16 nM; in data set [2] it was 17.5 nM.
On to “ACCGAACAUGAGGAUCACCCAUGUGAGGAUAUAGACGCAAAUUAAACGCGUAACAAAACUAGAAGGCACUGGGC [Veais]”, for which the “apparent KD of MS2 coat protein” value in data set [1] is 15.3 nM; in data set [2], 27.6 nM.
Taken in the same sequence, the figures for “ACUUAGACAGGAUAUACGUGAGUGGAAAAAGUGUAUCCACUACAUGAGGAUCACCCAUGUAGAAGGGUCUAAGA [Ex2 Design 182: Random 7]” were 19.7 nM and 18.6 nM.
For the sequence “AGAAAACAUGAGGAUCACCCAUGUCAGGAUAUCUAAAAGAAAAGAAAAGAAAGAAGAAAGAGAAGGGACAAGAA [Sekhemib-Perenmaat]”, the “apparent KD of MS2 coat protein” value was 25.5 nM in data set [1] and 22.1 nM in data set [2].
On to “AGAAAGGCAGGAUAUACAUGAGGAUCACCCAUGUUAAGAGUGACGGAAACGUCACGAAGUAGAAGGGCCAAGAA [The song I sing]”, for which the “apparent KD of MS2 coat protein” value stood at 17.3 nM in data set [1] and 20.4 nM in data set [2].
In the case of “AGAGACAGAGGAUAUACAUGAGGAUCACCCAUGUAAGAGAAAGAAAAGGGAAAGAAAAGUAGAAGGCUGAGAGA [Ruby 67]”, the “apparent KD of MS2 coat protein” value in data set [1] came to 28.7 nM; in data set [2], 24.2 nM.
For “AGCAAACAUGAGGAUCACCCAUGUCAGGAUAUGAACGAAAUAAAAUAAAAAUAAAAGUUCAGAAGGGACGAGCA [Mat - Exclusion 1 - Eli mod - D24]”, the “apparent KD of MS2 coat protein” value in data set [1] came to 43.5 nM; in data set [2], 32.3 nM.
In the case of “AGCAAGUCAGGAUAUGCGAAGUCAGGACACACACUGACGAAGCAGAAGGGACAUGAGGAUCACCCAUGUAAGCA [JR_Exclusion4_Sub6]”, the “apparent KD of MS2 coat protein” value in data set [1] is 39.3 nM; in data set [2], 42.5 nM.
The matching figures for “AGCAGGUGAGGAUAUCGAUUAAGAUUAACAUUAUUAUUAAACGAGAAGGCACAUGAGGAUCACCCAUGUAAGGA [Exclusion 4Col]”: 51.8 nM and 43.4 nM.
“AGCUAGUCAGGAUAUACGAACAUGUCAAAAGACGUGAAGGAACAUGAGGAUCACCCAUGUAGAAGGGACUAGCA [Diamond 19]”: the entries for the “apparent KD of MS2 coat protein” value in data set [1] and in data set [2] were 16.5 nM and 19.3 nM, respectively.
The matching figures for “AGCUAGUCAGGAUAUACGAACAUGUCAAAAGACGUGAAGGGACAUGAGGAUCACCCAUGUAGAAGGGACUAGCC [salish99-Ex2-17]”: 145 nM and 33.2 nM.
Taken in the same sequence, the figures for “AGCUAGUCAGGAUAUACGAACAUGUCGAGAGACGUGAAGGGACAUGAGGAUCACCCAUGUAGAAGGGACUAGCA [Mat - Exclusion 2 - JL mod - D2]” were 170 nM and 35.5 nM.
In the case of “AGCUAGUCAGGAUAUACGAACAUGUCGCCAGAUGUGAAGGGACAUGAGGAUCACCCAUGUAGAAGGGACUAGCA [salish99-Ex2-23]”, the figures for the “apparent KD of MS2 coat protein” value in data set [1] and in data set [2] were 198 nM and 254 nM, respectively.
“AGCUAGUCAGGAUAUACGAACAUGUCGGAAGACGUGAAGGGACAUGAGGAUCACCCAUGUAGAAGGGACUAGCA [Mat - Exclusion 2 - JL mod - D3]”: the “apparent KD of MS2 coat protein” value came to 136 nM in data set [1] and 33.1 nM in data set [2].
“AGCUAGUCAGGAUAUACGAACAUGUCGGUGGACGUGAAGGGACAUGAGGAUCACCCAUGUAGAAGGGACUAGCA [salish99-Ex2-21]”: the “apparent KD of MS2 coat protein” value in data set [1] is 91.5 nM; in data set [2], 41.3 nM.
Taken in the same sequence, the figures for “AGCUAGUCAGGAUAUACGAGCAUGUCAAAAGACGUGAAGGGACAUGAGGAUCACCCAUGUAGAAGGGACUAGCA [Diamond 22]” were 122 nM and 40.3 nM.
On to “AGCUAGUCAGGAUAUGCAUGAAAAAAAAAAAAAAAAAAAAAACAUGAGGAUCACCCAUGUAGAAGGGACUAGCA [Starry Exclusion 2 (jandersonlee round 1 mod)]”, for which the entries for the “apparent KD of MS2 coat protein” value in data set [1] and in data set [2] were 212 nM and 126 nM, respectively.
